The record followed here is patent US20260193669A1 (NYKODE THERAPEUTICS ASA, published 2026).

The data set deals with the molecule itself. Kind of data set: blue native PAGE and Western blot of supernatant, Motavizumab detection; self-assembly. In general terms: A western blot detects proteins with antibodies after separation by electrophoresis.

B1: PreF protein and ferritin (further polypeptide of DNA plasmids IV083 and IV085; also encoded alone by IV081) (other)
chain: QNITEEFYQSTCSAVSKGYLSALRTGWYTSVITIELSNIKENKCNGTDAKVKLIKQELDKYKNAVTELQLLMGSGNVGLGGAIASGVAVSKVLHLEGEVNKIKSALLSTNKAVVSLSNGVSVLTFKVLDLKNYIDKQLLPILNKQSCSISNPETVIEFQQKNNRLLEITREFSVNAGVTTPVSTYMLTNSELLSLINDMPITNDQKKLMSNNVQIVRQQSYSIMSIIKEEVLAYVVQLPLYGVIDTPCWKLHTSPLCTTNTKNGSNICLTRTDRGWYCDNAGNVSFFPQAETCKVQSNRVFCDTMNSRTLPSEVNLCNVDIFNPKYDCKIMTSKTDVSSSVITSLGAIVSCYGKTKCTASNKNRGIIKTFSNGCDYVSNKGVDTVSVGNTLYYVNKQEGKSLYVKGEPIINFYDPLVFPSDEFDASISQVNEKINQSLAFINKSDELLSGSGSESQVRQQFSKDIEKLLNEQVNKEMQSSNLYMSMSSWSYTHSLDGAGLFLFDHAAEEYEHAKKLIIFLNENNVPVQLTSISAPEHCFEGLTQIFQKAYEHEQHISESINNIVDHAIKSKDHATFNFLQWYVAEQHEEEVLFKDILDKIELIGNENHGLYLADQYVKGIAKSRKS
notes: Secreted into supernatant of Expi293F cells; 24-mer by native PAGE; also called further polypeptide (PreF protein)-ferritin nanoparticles, IV083 and IV085
B1: the binding result was “binds”.

B2: Single chain PreF protein and ferritin (further polypeptide of DNA plasmids IV082 and IV084; also encoded alone by IV080) (other)
chain: QNITEEFYQSTCSAVSKGYLSALRTGWYTSVITIELSNIKENKCNGTDAKVKLIKQELDKYKNAVTELQLLMGSGNVGLGGAIASGVAVCKVLHLEGEVNKIKSALLSTNKAVVSLSNGVSVLTFKVLDLKNYIDKQLLPILNKQSCSISNIETVIEFQQKNNRLLEITREFSVNAGVTTPVSTYMLTNSELLSLINDMPITNDQKKLMSNNVQIVRQQSYSIMCIIKEEVLAYVVQLPLYGVIDTPCWKLHTSPLCTTNTKEGSNICLTRTDRGWYCDNAGSVSFFPQAETCKVQSNRVFCDTMNSRTLPSEVNLCNVDIFNPKYDCKIMTSKTDVSSSVITSLGAIVSCYGKTKCTASNKNRGIIKTFSNGCDYVSNKGVDTVSVGNTLYYVNKQEGKSLYVKGEPIINFYDPLVFPSDEFDASISQVNEKINQSLAFIRKSDELLSGGSSGSSGGSDIIKLLNEQVNKEMQSSNLYMSMSSWCYTHSLDGAGLFLFDHAAEEYEHAKKLIIFLNENNVPVQLTSISAPEHKFEGLTQIFQKAYEHEQHISESINNIVDHAIKCKDHATFNFLQWYVAEQHEEEVLFKDILDKIELIGNENHGLYLADQYVKGIAKSRKSGS
notes: Secreted into supernatant of Expi293F cells; 24-mer by native PAGE; also called further polypeptide (PreF protein)-ferritin nanoparticles, IV082 and IV084
For B2, the binding result is listed as “binds”.
